Assay results taken from the DeepSol protein solubility set.

Experiment: soluble on expression in E. coli; label from the status in PepcDB or PDB records

Soluble on expression in E. coli, soluble:
MVKIVKAQFHTAGKLYDFGAGDLDLKPGDKIIVETERGRSIATVVTPPREYEEAHVPEGLKTAIRIAEPSDLASAARNDAREQEAHAFCLRKIKERGMEMKLVKVEYLFDGSKAIFYFTADGRVDFRELVKDLAHQFHTRIEMRQIGVRDESKMIGGIGICGRELCCSSFLREFEPVSVKMAKEQNLALNPTKISGQCGRLLCCLGYEYETYCSLKKCLPKCGKVVKCGSTEGEVIKQNIIEGTVFVKTDDDRIVELKGESIKPEDISERPKSPRREGGTREREKEPQSSSDNQRREKPRDREQKPGDDGEQRRERDTKKNQDQQRGERGNRDRRGGKGRDKDKKEPKLEHHHHHH
MVMTVRVIAPDKTVWDAPAEEVILPSTTGQLGILSNHAPLLTALETGVMRVRQDREWVAIALMGGFAEVENNEVTILVNGAERGDTIDLEKAKAEFAAAQAALAQAEQGESKQAKIQATQAFRRARARLQAAGGVVEI
MVPDRREQSKAKERLLEREEALAKHMSEREKRPPPKIDPPPSPKAPEPSKRVLKEKQAPLFVDTAVEGTLPPLSLLDPAEVKQKSYSPESLEAMSRLLEIKLKEFGVEVSVDSVHPGPVITRFEIQPAAGVKVSRISNLAKDLARSLAVISVRVVEVIPGKTTVGIEIPNEDRQMVRFSEVLSSPEYDEHKSTVPLALGHDIGGRPIITDLAKMPHLLVAGTTGSGKSVGVNAMLLSILFKSTPSEARLIMIDPKMLELSIYEGIPHLLCPVVTDMKEAANALRWSVAEMERRYRLMAAMGVRNLAGFNRKVKDAEEAGTPLTDPLFRRESPDDEPPQLSTLPTIVVVVDEFADMMMIVGKKVEELIARIAQKARAAGIHLILATQRPSVDVITGLIKANIPTRIAFQVSSKIDSRTILDQGGAEQLLGHGDMLYLPPGTGLPIRVHGAFVSDDEVHRVVEAWKLRGAPDYIEDILAGVDEGGGGGGSFDGGDGSGEGSEDDPLYDEAVRFVTESRRASISAVQRKLKIGYNRAARMIEAMEMAGVVTPMNTNGSREVIAPAPVRDKLHHHHHH
MVPQTETKAGAGFKAGVKDYRLTYYTPDYVVRDTDILAAFRMTPQPGVPPEECGAAVAAESSTGTWTTVWTDGLTSLDRYKGRCYDIEPVPGEDNQYIAYVAYPIDLFEEGSVTNMFTSIVGNVFGFKALRALRLEDLRIPPAYVKTFVGPPHGIQVERDKLNKYGRGLLGCTIKPKLGLSAKNYGRAVYECLRGGLDFTKDDENVNSQPFMRWRDRFLFVAEAIYKAQAETGEVKGHYLNATAGTCEEMMKRAVCAKELGVPIIMHDYLTGGFTANTSLAIYCRDNGLLLHIHRAMHAVIDRQRNHGIHFRVLAKALRMSGGDHLHSGTVVGKLEGEREVILGFVDLMRDDYVEKDRSRGIYFTQDWCSMPGVMPVASGGIHVWHMPALVEIFGDDACLQFGGGTLGHPWGNAPGAAANRVALEACTQARNEGRDLAREGGDVIRSACKWSPELAAACEVWKEIKFEFDTIDKL
MVQQKVEVRLKTGLQARPAALFVQEANRFTSDVFLEKDGKKVNAKSIMGLMSLAVSTGTEVTLIAQGEDEQEALEKLAAYVQEEVLQ
MVRANKRNEALRIESALLNKIAMLGTEKTAEAVGVDKSQISRWKRDWIPKFSMLLAVLEWGVVDDDMARLARQVAAILTNKKRPAATERSEQIQMEF
MVRILPIILSALSSKLVASTILHSSIHSVPSGGEIISAEDLKELEISGNSICVDNRCYPKIFEPRHDWQPILPGQELPGGLDIRINMDTGLKEAKLNDEKNVGDNGSHELIVSSEDMKASPGDYEFSSDFKEMRNIIDSNPTLSSQDIARLEDSFDRIMEFAHDYKHGYKIITHEFALLANLSLNENLPLTLRELSTRVITSCLRNNPPVVEFINESFPNFKSKIMAALSNLNDSNHRSSNILIKRYLSILNELPVTSEDLPIYSTVVLQNVYERNNKDKQLQIKVLELISKILKADMYENDDTNLILFKRNAENWSSNLQEWANEFQEMVQNKSIDELHTRTFFDTLYNLKKIFKSDITINKGFLNWLAQQCKARQSNLDNGLQERDTEQDSFDKKLIDSRHLIFGNPMAHRIKNFRDEL

Soluble on expression in E. coli, not soluble:
MVIRRTYMARDNTYYLDEALYISAQAPTGIELSFIGGGGPGSGGWGLSDGYPRGTSPTKNDIARVISTRRVLTEEFQIIEKDYSDKYAHETNQLPETINALKAQIKAEASSTNGAASPFVTEQQILSSRISQIRDGYLQILPDANNYFGVPAFYKRGDSMMSRFLDPGFFAATTGQELGVEWATRLQKSWEGTYRLHLEAQKHQALADELRALASQVDQEELSQQPLDLLQVIARRTAQIHTERQIHFDCLPNVLQHELGQTVIDDTLTLVQTFSTYLATAAALVQAKQSQIPPYQDQNPRINSPLSKPQLEGLLHLVDEQRLRRAGPRWQEYHLALALTESIRFLGVYAGATQNLMQRAAEVENLQAQLAAQEEAARQQAEAERLAAEAERQRQEALRRSVSYINEARLAVSTPAVIPIGATTFAVAEAAYSALAESIAAALTRLVATTVPSVAVGTLAMAWPSTLGNSERQYLISTPLDSLSPAGGPDLAALAASSTSIDLPYLLAGVENENELDLYVVPSGKPVAVRAATFDSERQVYSLALDNPQRILTWTPASAPGGDEGNSTSLPLVPPGTVVYTGSSLNPVVTEQEGYPALDLLDQERLIITFPMDSGLPPILVVFKSPRYEAGTSTGHGAQVSDTWRKEAASLEGAPIPAQIAELLKSREFRNFDAFRRQFWKAVANDPELSKQFDEMSLSRMRKNGYSPIVDFPDSHLSQKTFILHHVIPISEGGGVYDMDNIRIVTPLSHNSIHYGTKPLEHHHHHH
MVLFTGKTVEEAIETGLQELGLSRLKAHIKVISKEKKGFLGFGKKPAQVDIEGISDKTVYKADKKATRGVPEDINRQNTPAVNSADVEPEEIKATQRLEAEDTKVVPLMSEDSPAQTPSNLAETVTETKAQQPSIPVEESEVPQDAGNDGFSKDIEKAAQEVSDYVTKIIYEMDIEATVETSNNRRQINLQIETPEAGRVIGYHGKVLKSLQLLAQNFLHDRYSKNFSVSLNVHDYVEHRTETLIDFTQKVAKRVLESGQDYTMDPMSNSERKIVHKTVSSIEGVDSYSEGNDPNRYVVVSLQR
MVLSCRVVDCGGLKLKENQTLLLLVSTIHNSSEVGKLSIDAEEKRSKEWLEMPCAEGMLSLKLTLWQDLLKGINSVFHGQVRVDVDENWKSGPAKWFYLRSKANEDGEGGEDGGDIGDATVKVTYQIDHILRMQVYKPLLDLLFLAGDVQPLTASLVAVIEALPKVELGPVSRSLVELMAQSDRIRPVLSSLYVNSILKCQDENTLFRGQSLSGKMLFEILTTYGKMYLITTLKPVVDKIYKERKNCEVDPARVAVGASLEKNRNNLLVYFQMLFERVTTSSTNCPHLIKQLLYDLRNVVGTHSSRSGVQRLAVSSFVIMRFFAAAILNPKAFEIRKDQPDLRVSRTLLLLSKLLQRLSNCSVSEGPLSSKEIWLNGVFETVTSEQHKSVMASFLDNISLVGDRSEPQKCTVFKFGNLQQVDRSRLAWKKVLHYKKRYVQLTNTHLIWQKDVQCAPKGTVPLSDIKFVNVDNKNIITIVCETMQLQFEAPGGVEATDWLNAIERQRNRAAHEIAETPGEHFFVDAERHVDKIHTLLYKYRETMIEWRDQLQSNVELDEKTAPELLKASYVVEEERQSHKDSLIATLCSTIDVTDAIQLAHTEYEKENKVSRRIDAIITAKKRQKSFSVK
MVLSVVVVGKPRCRSIAVAARERLHRYGEYPMSSNNASGKVVSVDEQAFENAGEQAADEDGFPVVDETPEFEAAVEQETQAKVDANHPDGIADTSEDRIHGVTLEQEERIRAREAELERISAQAELGTQDGREQRTRDIAAKRSAVRRAEFQTRAASVDPMADPERDDPRAELTQEQLAAVNKQSMRLAEKLDGWSRAAIGRRLGEAVVGGKDVTSAVVGVFEELQTAPGTVIPIGKLEDVNRKEVSIEGTVTRLWKPSSAAISQVGLIEDESGKTKFTSWVASEQPWIEEGEHVRIHGAAKNWYNGRVSVALTGWSTVHFPERGRWWEALEHHHHHH
MVNLTELDRMLTETRGLLSQVRSGKGGASQEAVEGQGSAADGRIRVVAGAGGEITSIELDPRVMRMSSQELAEHLVEAVNQALRELRAQVTTAETAIAPEVLAQRLAEVQDQGLRQMTMFVEGLRDAMTQLGQRADRSG
MVPVVALVGRPNVGKSTLFNRLTRTRDALVADFPGLTRDRKYGRAEIEGREFICIDTGGIDGTEDGVETRMAEQSLLAIEEADVVLFMVDARAGLMPADEAIAKHLRSREKPTFLVANKTDGLDPDQAVVDFYSLGLGEIYPIAASHGRGVLSLLEHVLLPWMEDLAPQEEVDEDAEYWAQFEAEENGEEEEEDDFDPQSLPIKLAIVGRPNVGKSTLTNRILGEERVVVYDMPGTTRDSIYIPMERDGREYVLIDTAGVRKRGKITDAVEKFSVIKTLQAIEDANVVMLVIDAREGISDQDLSLLGFILNSGRSLVIVVNKWDGLSQEVKEQVKETLDFRLGFIDFARVHFISALHGSGVGNLFESVREAYDSSTRRVGTSMLTRIMTMAVEDHQPPLVRGRRVKLKYAHAGGYNPPIVVIHGNQVKDLPDSYKRYLMNYFRKSLDVMGSPIRIQFKEGENPYANKRNTLTPTQMRKRKRLMKHIKKNK
MVQELLKQLQNGEAKFADVLAYIESRFEHQPTAFKNGQQQNAATENQGSAKVFSLAQIEGLNQTETLSLFAEHYAAVLNTPEGTDHQNIRQFMQHGWDGVTFEGEALQAK
MVQESTMICVDNSEYMRNGDFQPTRLQSQQDAVNLVTQCKLRANPENAVGILSMANSVQVLSSLSTEQGRLMMKNHSIEPFGKCNFIAGIKIAHLALKHRQNRNHKMRVVLFIGSPLEEIEMNELVKIAKKMKKEKVLCDVIMFGENESDGHEKFSTFVDTLNGKEGSGSSLIVVPQGSSLTDALLQSSVCKNEDGQAAFGGGGNGMDNAFGMDVENDPDLALALRVSMEEERARQAAAAAANGGAADSGADAEVAAAAAAVPLEEMDMGAMTEEQQLEWALRLSMQENAPAEQPQVQHEQMDVDGAPAVGGDNLDDLMNNPELLQQIVDDLPAANAEKDDDKEKK
MVQTYRSPVRIYKHPFEIVMAAYEMRFPTCPQIPIFVGSEVTYEYKSVDGAEWVIDRKCQLNVEAPYLVKKIAGVDYVYFSQKNSLDRRKRTLDIEATNISFSSRINVKENCTYYVHAENENWTCFEQSASLDVKNFFGLESAVEKLAVRQYGANLAKGKEILEFFIEELLKKTTHIERFRDADQEETTSATDSAIEMKELSDGDAVLVNDRPPMLAAETDEMRTARATASFDDACRVCMIIYCRIFIIISSYFFNFPADSKLEAEYIRRFLGQLSPLEESRLCEIKYSLQAHHKGKLPNDAHLLRFLRARDFDVAKAKDMVHASIIWRKQHNVDKILEEWTRPTVIKQYFPGCWHNSDKAGRPMYILRFGQLDTKGMLRSCGVENLVKLTLSICEDGLQRAAEATRKLGTPISSWSLVVDLDGLSMRHLWRPGVQCLLKIIEIVEANYPETMGQVLVVRAPRVFPVLWTLISPFIDEKTRKKFMVSGGSGGDLKEELRKHIEEKFIPDFLGGSCLTTNCGLGGHVPKSMYLPVEEQEGASSSEDPLHSTYTSTATWRGYPVEVVIPIETAGCVLTWDFDVLKNDCEFSLYFSTEKIEQPAVRDGAQSPTTILNPVEMVSAAIGGASHQHPDLQCAPELKIGTPQLRLEEKAVVFQEGDSMQGSHYCSRAGTYIMQWRVPETAAGHSSTFDFGSHKCRLIYYYEILNSENFRGSVASLESCRSSSFSSIAPPTPPTPGTPRNP
MVRFFIGKEMLFDSHLHLDQLSDENIQQTLAHSKIIGMLAVSTNLNSAKKLLNLKQTYPKKLYIAAGFHPEQQLPSLEEQKKLFQWIDEHHSSISAIGEVGLPHYSKRENPNLDYVPYIELLERFILIAKKWDLPLNLHIVHNDVEIALELLQKHNIQRAHFHWFKTDEKSFQKFFSTPYFASLTPDILWNSKTQYVAQHLSLNRLMIETDSPWQHEGFERAGISEQLLAVLQKLAELKSLPLHSVQKQILLNTQQFYRLLEHHHHHH
